Laboratory results taken from patent US20100035363A1 (TIBOTEC PHARMACEUTICALS, published 2010).

T1: biotin-labeled RSV-IQN57 (Respiratory Syncytial Virus (F1 part), biotin label (position not stated in the example); captured on streptavidin-allophycocyanin in the assay)
T1 construct: Synthetic peptide; In the assay it was pre-mixed with streptavidin-APC (final 100 nM IQN57-biotin, 10 nM streptavidin-APC); also called IQN57-biotin; IQN57-APC
T1 peptide: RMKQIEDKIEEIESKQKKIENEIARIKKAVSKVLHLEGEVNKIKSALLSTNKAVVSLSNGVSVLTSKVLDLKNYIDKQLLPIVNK


How the values were obtained:
[1] = target: T2, biotin-labeled RSV-IQN51 (Respiratory Syncytial Virus (F1 part), biotin label (position not stated in the example); captured on streptavidin-allophycocyanin in the assay); assay: time-resolved FRET competition, IQN51-APC/C39-Eu assay; competitor C39-Eu
T2 construct: Synthetic peptide; In the assay it was pre-mixed with streptavidin-APC (final 100 nM IQN51-biotin, 10 nM streptavidin-APC); also called IQN51-biotin; IQN51-APC

[2] = target: T1, biotin-labeled RSV-IQN57; assay: time-resolved FRET competition, IQN57-APC/C45-Eu assay; competitor C45-Eu
Experimental: Test compounds were serially diluted in PBS and then added to 384-well plates.
Equal volumes of the IQN57-biotin and strepatavidin-APC solution were mixed and incubated for 30 min at room temperature in tubes. Next, these mixes were transferred from the tubes to plates containing test compounds (ratio 2:1) and incubated for 2 h at room temperature. […] After incubating the plates for 30 min at room temperature, the fluorescence resonance energy transfer (FRET) signal was detected using a Viewlux reader and used to calculate the 50% inhibitory concentration (IC₅₀) of the test compound. IC₅₀ is the drug concentration at which 50% of the FRET signal (or 6HB complex formation) is inhibited. A final DMSO percentage of 0.5% was applied. This assay is named the IQN57-APC/C45-Eu assay.

| Binder | IC50 [1] | IC50 [2] |
| --- | --- | --- |
| VFPSDEFDASISQVNEKINQSLAFIRKSDELLHNVNAGK [RSV-C39] | 76 nM | 64 nM |
| NFYDPLVFPSDEFDASISQVNEKINQSLAFIRKSDELLHNVNAGK [RSV-C45] | 76 nM | 74 nM |
